Measured values reported in patent US20090070890A1 (AFFITECH, published 2009).

Legend:
[1] = biological target: T1, mouse recombinant CD166-Fc (R&D systems) (mouse, UniProt Q61490 28-527); assay: ELISA on coated mouse CD166-Fc
T1 construct: Bought reagent; also called mouse CD166-Fc; not shown: Fc part of the commercial chimera, not described
T1 sequence (looked up): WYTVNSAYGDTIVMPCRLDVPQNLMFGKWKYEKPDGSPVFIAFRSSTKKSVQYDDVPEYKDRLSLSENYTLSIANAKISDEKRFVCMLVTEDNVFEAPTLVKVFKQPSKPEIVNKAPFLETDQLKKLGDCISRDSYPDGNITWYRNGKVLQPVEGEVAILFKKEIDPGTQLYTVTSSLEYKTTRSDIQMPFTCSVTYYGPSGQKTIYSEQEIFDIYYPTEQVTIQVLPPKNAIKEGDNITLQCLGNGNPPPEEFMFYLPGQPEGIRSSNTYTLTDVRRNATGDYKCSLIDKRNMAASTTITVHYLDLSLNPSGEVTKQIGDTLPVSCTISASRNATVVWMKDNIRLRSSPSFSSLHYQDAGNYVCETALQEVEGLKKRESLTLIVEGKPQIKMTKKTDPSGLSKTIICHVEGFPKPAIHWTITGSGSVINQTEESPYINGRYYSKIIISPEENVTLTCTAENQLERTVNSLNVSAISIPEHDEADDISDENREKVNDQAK

[2] = biological target: T2, CD166 (ALCAM, activated leukocyte cell adhesion molecule), native, of human tumor cell lines (human, UniProt Q13740 28-583); assay: western blot, non-reducing SDS-PAGE, probed with EJ212/007-Cl2-5 IgG and anti-human IgG-HRP
T2 construct: whole, on cells; The antigen was identified as CD166 by mass spectrometry of protein from PM-1 cells; also called CD166 antigen; MEMD
T2 sequence (looked up): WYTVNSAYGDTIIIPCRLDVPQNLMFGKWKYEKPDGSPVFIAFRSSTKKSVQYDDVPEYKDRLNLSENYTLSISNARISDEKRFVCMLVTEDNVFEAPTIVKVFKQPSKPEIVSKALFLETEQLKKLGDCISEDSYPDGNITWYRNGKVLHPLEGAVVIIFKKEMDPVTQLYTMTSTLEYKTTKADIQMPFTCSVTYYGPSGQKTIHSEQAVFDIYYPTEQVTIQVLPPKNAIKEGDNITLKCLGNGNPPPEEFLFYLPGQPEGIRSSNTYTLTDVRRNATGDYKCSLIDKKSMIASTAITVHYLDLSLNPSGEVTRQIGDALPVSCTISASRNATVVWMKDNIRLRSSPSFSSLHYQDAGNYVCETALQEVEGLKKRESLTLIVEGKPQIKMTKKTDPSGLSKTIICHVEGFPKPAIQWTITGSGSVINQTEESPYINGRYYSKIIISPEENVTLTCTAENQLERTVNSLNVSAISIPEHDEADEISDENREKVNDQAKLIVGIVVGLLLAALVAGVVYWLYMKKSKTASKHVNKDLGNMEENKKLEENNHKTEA
Text: Membrane proteins were isolated from two EJ212/007-Cl2-5 antigen-positive cell lines (PM-1 and DU-145; determined by FACS analysis) and concentrated by ultra-centrifugation. The membranes were resuspended in detergent (CHAPS/DOC) which was then removed from the sample by using Detergent Removing Resin (Pierce) in column format. The purified membrane proteins before and after sample concentration, and the cytosolic fraction were subsequently analysed by SDS-PAGE/Western under non-reducing conditions. The blot was probed with the EJ212/007-Cl2-5 IgG and corresponding secondary anti-human IgG coupled to HRP in order to visualise the proteins by chemiluminescence.

[3] = biological target: T3, human recombinant CD166-Fc (R&D systems), complete extracellular domain (human, UniProt Q13740 28-527); assay: ELISA, plate coated with 10 ug/ml CD166-Fc, detection with anti-kappa-HRP and ABTS, absorbance at 405 nm
T3 construct: extracellular domain; Bought reagent; also called recombinant CD166-Fc antigen; human CD166-Fc; not shown: Fc part of the commercial chimera, not described
T3 sequence (looked up): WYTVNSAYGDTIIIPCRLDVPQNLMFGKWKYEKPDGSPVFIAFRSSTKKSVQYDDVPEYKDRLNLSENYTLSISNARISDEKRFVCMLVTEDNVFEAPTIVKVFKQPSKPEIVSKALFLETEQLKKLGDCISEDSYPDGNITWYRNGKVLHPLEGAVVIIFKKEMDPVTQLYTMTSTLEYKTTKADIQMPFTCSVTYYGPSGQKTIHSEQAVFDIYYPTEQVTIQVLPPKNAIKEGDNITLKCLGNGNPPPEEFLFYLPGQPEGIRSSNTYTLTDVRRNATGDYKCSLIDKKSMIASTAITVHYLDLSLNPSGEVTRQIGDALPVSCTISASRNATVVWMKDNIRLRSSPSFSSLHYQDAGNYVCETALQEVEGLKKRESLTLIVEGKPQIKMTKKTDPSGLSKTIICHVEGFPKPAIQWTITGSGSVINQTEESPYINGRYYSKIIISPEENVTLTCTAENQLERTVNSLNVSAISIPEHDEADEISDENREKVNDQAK
Method: Binding of the EJ212/007-Cl2-5 IgG to the CD166 antigen was tested in ELISA. An ELISA plate was coated overnight with 10 μg/ml of a commercially available recombinant CD166-Fc antigen (R&D systems), CD166 d1-5/Fc or CD166 d1-3/Fc. An IgG with irrelevant binding specificity was added to the ELISA as a negative control. After washing with PBS/0.05% Tween the plate was incubated for 1 hour with a dilution series of EJ212/007-Cl2-5 IgG ranging from 10 to 0.16 μg/ml. Detection of the bound IgG was done by incubation for 1 hour with 1 μg/ml anti-kappa-HRP and 15 minutes with the 1-step ABTS substrate (Pierce). The absorbance was measured at 405 nm.

[4] = biological target: T2, CD166 (ALCAM, activated leukocyte cell …); assay: photo-cross-linking of linker-coupled scFv to PM-1 cells, His-column and streptavidin-bead purification, blot detected with streptavidin-HRP
Method: PM-1 cells (2×10⁶) were incubated with 25 μg of the above linker coupled scFv. After washing with PBS the cells were exposed to UV light at 302 nm. This was followed by lysis of the cells by NP-40 in the presence of DNAsel. After incubation on ice SDS was added and the samples were loaded on a His-column. The column was washed in the presence of NP-40 and SDS and the protein of interest was eluted with 5 mM DTT in the same detergents. The eluted sample was then mixed with streptavidin beads and the beads were washed in the presence of SDS. The SDS concentrations was increased and the beads were incubated at 90° C. for five minutes. The supernatant was then run on a 7% SDS-PAGE, transferred to a PVDF membrane and detected with streptavidin-HRP.

[5] = biological target: T4, Recombinant ALCAM/Fc (UniProt Q13740 28-527, limits assumed); assay: Biacore T100; ALCAM/Fc (250 RU) amine-coupled to a CM5 chip; Fab at 3.9 to 125 nM; heterogeneous ligand model; Fab, not IgG; ALCAM/Fc on the chip
T4 construct: also called CD166 antigen (Biacore)
T4 sequence (looked up): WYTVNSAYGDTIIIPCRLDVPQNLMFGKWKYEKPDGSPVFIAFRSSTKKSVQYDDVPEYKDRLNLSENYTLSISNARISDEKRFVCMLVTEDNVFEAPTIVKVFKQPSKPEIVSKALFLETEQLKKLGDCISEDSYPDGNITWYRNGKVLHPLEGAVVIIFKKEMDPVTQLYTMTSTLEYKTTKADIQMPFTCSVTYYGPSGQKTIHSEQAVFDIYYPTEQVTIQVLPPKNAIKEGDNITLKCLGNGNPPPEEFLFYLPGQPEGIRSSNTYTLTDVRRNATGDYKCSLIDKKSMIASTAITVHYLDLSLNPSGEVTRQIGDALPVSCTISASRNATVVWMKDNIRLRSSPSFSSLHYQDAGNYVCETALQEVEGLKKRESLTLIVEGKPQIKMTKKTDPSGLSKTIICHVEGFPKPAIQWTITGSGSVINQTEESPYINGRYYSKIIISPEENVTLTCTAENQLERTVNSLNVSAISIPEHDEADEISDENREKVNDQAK
Method: Binding affinity of EJ212/007-Cl2-5 Fab fragments to the CD166 antigen was measured by Biacore analysis. Recombinant ALCAM/Fc (250RU) was immobilized by amine coupling to a CM5 chip. A range of concentrations of the Fab antibody, from 3.9 to 125 nM (nanomolar), were run over the chip. The binding affinity, expressed as the Kd, was calculated using the Heterogen ligand binding model in the Biacore T100 Evaluation software.

B1: EJ212/007-Cl2-5 IgG (antibody)
heavy: not shown
light: DIRMTQSPSFLSASVGDRVTITCRASQDISSYFAWYQQKPGKAPKLLIYAASTLRSGVPSRFSGSGSGTDFTLTISSLQPEDFATYYCQQSYSTPRITFGQGTRLEIKRTVAAPSVFIFPPSDEQLKSGTASVVCLLNNFYPREAKVQWKVDNALQSGNSQESVTEQDSKDSTYSLSSTLTLSKADYEKHKVYACEVTHQGLSSPVTKSFNRGEC
notes: Human IgG1/kappa; also called IgG form of EJ212/007-Cl2-5; EJ212/007-Cl2-5 IgG antibody
B1: binds [1]; binds [2]; binds [3].

B2: scFv EJ212/007-Cl2-5 T68C (scFv, name in Kabat numbering)
scFv: EVQLLESGGGLVQPGGSLRLSCAASGFTFSSYAMSWVRQAPGKGLEWVSAISGSGGSTYYADSVKGRFCISRDNSKNTLYLQMNSLRAEDTAVYYCARGGGVVEFWGQGTLVTVSSKLSGSASAPKLEEGEFSEARVDIRMTQSPSFLSASVGDRVTITCRASQDISSYFAWYQQKPGKAPKLLIYAASTLRSGVPSRFSGSGSGTDFTLTISSLQPEDFATYYCQQSYSTPRITFGQGTRLEIK
modifications: Mts-Atf-LC-Biotin linker (Pierce 33083) coupled to the introduced Cys 68 (Kabat)
notes: Expressed in E. coli TG1; also called EJ212/007-Cl2-5 scFv (His-tagged) with a cysteine introduced by point mutation at position 68 (Kabat, RFCIS); linker coupled scFv
B2: binds [4].

B3: EJ212/007-Cl2-5 Fab (Fab, V domains shown)
VH: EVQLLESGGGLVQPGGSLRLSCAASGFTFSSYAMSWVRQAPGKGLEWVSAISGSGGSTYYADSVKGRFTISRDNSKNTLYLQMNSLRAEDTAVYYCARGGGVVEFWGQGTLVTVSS
VL: DIRMTQSPSFLSASVGDRVTITCRASQDISSYFAWYQQKPGKAPKLLIYAASTLRSGVPSRFSGSGSGTDFTLTISSLQPEDFATYYCQQSYSTPRITFGQGTRLEIK
notes: Fab format of EJ212/007-Cl2-5; The CH1 and CL of the Fab, and how it was made, are not described; also called EJ212/007-Cl2-5 Fab fragments; Fab antibody
Binder B3 has a Kd [5] of 0.029 µM.
